Measurements published in publication PMC4250405.

Molecular target: taxol-stabilized microtubules (UniProt Q6B856)
Test: optical trap bead assay

- MT binding time of diffusive beads: 54.3 s
Substance: p150^Glued fragment p150 1-555 (from UniProt P28023 1-555) (domain or fragment)
